Test results from US20020068696A1 (published 2002).
Values belong to the binder of their own block, whether it stands above or below them.

Tests used:
HA-TRAF2 = molecular target: T1, HA-TRAF2 (UniProt Q12933 1-501, limits assumed); assay: co-immunoprecipitation from 293T lysates, western blot
T1 construct: not shown: HA tag
T1 sequence (looked up): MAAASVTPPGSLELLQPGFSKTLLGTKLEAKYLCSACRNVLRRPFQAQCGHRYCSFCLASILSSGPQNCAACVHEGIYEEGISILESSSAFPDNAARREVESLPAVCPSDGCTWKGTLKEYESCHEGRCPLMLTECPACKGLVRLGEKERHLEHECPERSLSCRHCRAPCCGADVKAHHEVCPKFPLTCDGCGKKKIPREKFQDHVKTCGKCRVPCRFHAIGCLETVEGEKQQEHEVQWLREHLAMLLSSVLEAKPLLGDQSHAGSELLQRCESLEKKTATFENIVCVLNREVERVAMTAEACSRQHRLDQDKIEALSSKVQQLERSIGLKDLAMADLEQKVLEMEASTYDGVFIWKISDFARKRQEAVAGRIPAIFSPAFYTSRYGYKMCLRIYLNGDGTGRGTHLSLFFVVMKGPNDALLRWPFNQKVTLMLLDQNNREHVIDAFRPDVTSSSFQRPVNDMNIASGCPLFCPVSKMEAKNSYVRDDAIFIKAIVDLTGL

HA-TRAF3 = molecular target: T2, HA-TRAF3 (UniProt Q13114 1-568, limits assumed); assay: as above
T2 construct: not shown: HA tag
T2 sequence (looked up): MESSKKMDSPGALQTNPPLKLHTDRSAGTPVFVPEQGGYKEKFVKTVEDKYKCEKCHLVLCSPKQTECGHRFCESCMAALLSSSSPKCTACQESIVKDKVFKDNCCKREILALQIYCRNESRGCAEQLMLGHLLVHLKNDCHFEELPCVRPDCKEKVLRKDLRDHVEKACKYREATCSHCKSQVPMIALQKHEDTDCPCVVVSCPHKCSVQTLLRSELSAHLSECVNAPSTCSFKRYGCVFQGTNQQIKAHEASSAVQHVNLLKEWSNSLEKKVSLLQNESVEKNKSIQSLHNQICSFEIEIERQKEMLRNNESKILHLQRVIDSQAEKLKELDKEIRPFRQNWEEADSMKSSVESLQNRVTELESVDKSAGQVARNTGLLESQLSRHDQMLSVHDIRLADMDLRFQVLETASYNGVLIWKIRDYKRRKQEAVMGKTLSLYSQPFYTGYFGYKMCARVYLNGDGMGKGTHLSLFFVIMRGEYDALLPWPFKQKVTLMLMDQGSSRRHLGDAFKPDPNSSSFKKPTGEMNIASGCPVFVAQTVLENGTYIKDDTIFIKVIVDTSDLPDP

binding result (HA-TRAF2): no binding
B1: Flag-tagged TRADEα (receptor)
chain: KVTCESGDCRQQEFRDRSGNCVPCNQCGPGMELSKECGFGYGEDAQCVTCRLHRFKEDWGFQKCKPCLDCAVVNRFQKANCSATSDAICGDCLPGFYRKTKLVGFQDMECVPCGDPPPPYEPHCASKVNLVKIASTASSPRDTALAAVICSALATVLLALLILCVIYCKRQFMEKKPSWSLRSQDIQYNGSELSCFDRPQLHEYAHRACCQCRRDSVQTCGPVRLLPSMCCEEACSPNPATLGCGVHSAASLQARNAGPAGEMVPTFFGSLTQSICGEFSDAWPLMQNPMGGDNISFCDSYPELTGEDIHSLNPELESSTSLDSNSSQDLVGGAVPVQSHSENFTAATDLSRYNNTLVESASTQDALTMRSQLDQESGAIIHPATQTSLQEA
notes: Full-length isoform expressed in 293T cells and tested in cell lysates by co-immunoprecipitation; Position of the Flag tag unknown (written last here only for want of information); Putative 25-residue signal left out; also called Flag tagged TRADE construct; not shown: Flag tag

binding result (HA-TRAF2): no binding
B2: Flag-tagged TRADEβ (receptor)
chain: KVTCETGDCRQQEFRDRSGNCVPCNQCGPGMELSKECGFGYGEDAQCVTCRLHRFKEDWGFQKCKPCLDCAVVNRFQKANCSATSDAICGDCLPGFYRKTKLVGFQDMECVPCGDPPPPYEPHCASKVNLVKIASTASSPRDTALAAVICSALATVLLALLILCVIYCKRQFMEKKPSWSLRSQDIQYNGSELSCLDRPQLHEYAHRACCQCRRDSVQTCGPVRLLPSMCCEEACSPNPATLGCGVHSAASLQARNAGPAGEMVPTFFGSLTQSICGEFSDAWPLMQNPMGGDNISFCDSYPELAGEDIHSLNPELESSTSLDSNSSQDLVGGAVPVQSHSENFTAATDLSRYNNTLVESASTQDALTMRSQLDQESGAIIHPATQTSLQVRQRLGSL
notes: Full-length isoform expressed in 293T cells and tested in cell lysates by co-immunoprecipitation; Position of the Flag tag unknown; Putative 25-residue signal left out; also called Flag tagged TRADE construct; not shown: Flag tag

binding result (HA-TRAF3): no binding
B3: deletion construct TRADE 1-218 (Flag-tagged) (receptor)
chain: KVTCESGDCRQQEFRDRSGNCVPCNQCGPGMELSKECGFGYGEDAQCVTCRLHRFKEDWGFQKCKPCLDCAVVNRFQKANCSATSDAICGDCLPGFYRKTKLVGFQDMECVPCGDPPPPYEPHCASKVNLVKIASTASSPRDTALAAVICSALATVLLALLILCVIYCKRQFMEKKPSWSLRSQDIQYNGSEL
notes: Putative 25-residue signal left out; not shown: Flag tag
